Measured values reported in the Immune Epitope Database (IEDB).
pIC50, pKd: −log10 of the molar value.

What was measured:
HLA-A*11:01 = experiment: IEDB peptide-MHC binding, purified MHC/competitive/fluorescence; ≥ and ≤ were set here for values at or beyond the usual limits of such assays
HLA-A*03:01 [1] = experiment: as above; details: source organism: Zaire ebolavirus
HLA-A*68:02 [2] = experiment: IEDB peptide-MHC binding, purified MHC/competitive/fluorescence; filed as Kd, often an IC50 or EC50 that approximates it; ≥ and ≤ were set here for values at or beyond the usual limits of such assays
HLA-A*01:01 = experiment: as above
HLA-B*15:01 [3] = experiment: as above
HLA-B*51:01 [4] = experiment: IEDB peptide-MHC binding, purified MHC/direct/fluorescence; filed as Kd, often an IC50 or EC50 that approximates it; ≥ and ≤ were set here for values at or beyond the usual limits of such assays
HLA-B*15:01 [5] = experiment: as above; details: source organism: Vibrio parahaemolyticus RIMD 2210633
HLA-B*07:02 = experiment: as above; details: source organism: Vibrio parahaemolyticus
HLA-B*58:01 = experiment: IEDB peptide-MHC binding, purified MHC/competitive/radioactivity; filed as Kd, often an IC50 or EC50 that approximates it; ≥ and ≤ were set here for values at or beyond the usual limits of such assays
HLA-A*68:02 [6] = experiment: as above; details: source organism: Dengue virus 2 Jamaica/1409/1983
HLA-B*57:01 [7] = experiment: as above
HLA-B*53:01 = experiment: as above
HLA-C*15:02 = experiment: IEDB peptide-MHC binding, purified MHC/direct/fluorescence; filed as Kd, often an IC50 or EC50 that approximates it; ≥ and ≤ were set here for values at or beyond the usual limits of such assays; details: source organism: West Nile virus
HLA-A*03:01 [8] = experiment: IEDB peptide-MHC binding, purified MHC/competitive/fluorescence; filed as Kd, often an IC50 or EC50 that approximates it; ≥ and ≤ were set here for values at or beyond the usual limits of such assays
HLA-A*32:01 = experiment: IEDB peptide-MHC binding, purified MHC/competitive/radioactivity; filed as Kd, often an IC50 or EC50 that approximates it; ≥ and ≤ were set here for values at or beyond the usual limits of such assays
HLA-B*08:01 = experiment: as above; details: source organism: Dengue virus 4 Philippines/H241/1956
HLA-B*51:01 [9] = experiment: as above; details: source organism: Dengue virus 4 Philippines/H241/1956
HLA-A*26:01 [10] = experiment: as above; details: source organism: Dengue virus 3 Singapore/8120/1995
HLA-A*02:06 = experiment: as above; details: source organism: Dengue virus 3 Singapore/8120/1995
HLA-A*23:01 = experiment: as above; details: source organism: Dengue virus 3 Singapore/8120/1995
HLA-B*35:01 = experiment: as above; details: source organism: Dengue virus 3 Singapore/8120/1995
HLA-A*24:02 = experiment: as above; details: source organism: Dengue virus 3 Singapore/8120/1995
HLA-A*02:12 [11] = experiment: IEDB peptide-MHC binding, purified MHC/direct/fluorescence; filed as Kd, often an IC50 or EC50 that approximates it; ≥ and ≤ were set here for values at or beyond the usual limits of such assays; details: source organism: Ebola virus Yambio0403
HLA-A*02:19 = experiment: as above; details: source organism: Ebola virus Yambio0403
HLA-A*24:03 = experiment: as above; details: source organism: Zaire ebolavirus
HLA-A*02:11 [12] = experiment: as above; details: source organism: Ebola virus Yambio0403
HLA-A*68:02 [13] = experiment: as above; details: source organism: Ebola virus Yambio0403
HLA-A*02:16 = experiment: as above; details: source organism: Ebola virus Yambio0403
HLA-A*03:01 [14] = experiment: as above; details: source organism: Ebola virus Yambio0403
HLA-A*02:03 = experiment: as above; details: source organism: Ebola virus Yambio0403
HLA-A*29:02 = experiment: as above; details: source organism: Ebola virus Yambio0403
HLA-B*46:01 = experiment: IEDB peptide-MHC binding, purified MHC/competitive/fluorescence; filed as Kd, often an IC50 or EC50 that approximates it; ≥ and ≤ were set here for values at or beyond the usual limits of such assays
HLA-A*69:01 = experiment: as above; details: source organism: Zaire ebolavirus
HLA-B*39:01 = experiment: as above
HLA-B*27:03 = experiment: as above
HLA-A*26:01 [15] = experiment: as above
HLA-A*02:01 = experiment: as above; details: source organism: Zaire ebolavirus
HLA-B*51:01 [16] = experiment: as above
HLA-B*18:01 = experiment: as above
HLA-B*57:01 [17] = experiment: as above
HLA-B*15:17 = experiment: as above; details: source organism: Zaire ebolavirus
HLA-A*02:12 [18] = experiment: as above; details: source organism: Coxiella burnetii 'MSU Goat Q177'
HLA-A*02:11 [19] = experiment: as above; details: source organism: Coxiella burnetii 'MSU Goat Q177'
[20] = source organism: Zaire ebolavirus
[21] = source organism: Escherichia coli str. K-12 substr. MG1655
[22] = source organism: Dengue virus 4 Philippines/H241/1956
[23] = source organism: Dengue virus 2 Jamaica/1409/1983
[24] = source organism: Dengue virus 1 Brazil/97-11/1997
[25] = source organism: West Nile virus
[26] = source organism: Salmonella enterica subsp. enterica serovar Typhi
[27] = source organism: Escherichia coli 536
[28] = source organism: Dengue virus 1 Singapore/S275/1990
[29] = source organism: Dengue virus 3 Singapore/8120/1995
[30] = source organism: Coxiella burnetii 'MSU Goat Q177'

ATQVEQHHR was tested, and the pIC50 (HLA-A*11:01; [20]) was 5.28 and the pIC50 (HLA-A*03:01 [1]) was ≤ 4.04.
EAIRQIHAQ was tested, and the pKd (HLA-A*68:02 [2]; source organism: Escherichia coli HS) was 6.09.
With ELACAVPFY the pKd (HLA-A*01:01; [21]) was ≤ 4.70 and the pKd (HLA-B*15:01 [3]; [21]) was 6.65.
EPATQTFDM was tested, and the pKd (HLA-B*51:01 [4]; source organism: Vibrio parahaemolyticus) was ≤ 4.70, the pKd (HLA-B*15:01 [5]) was ≤ 4.70 and the pKd (HLA-B*07:02) was 6.92.
ERSWNTGFDW gave a pKd (HLA-B*58:01; [22]) of 6.17.
ESSPNPTIEA gave a pKd (HLA-A*68:02 [6]) of 7.28 and a pKd (HLA-B*57:01 [7]; [23]) of 5.68.
For ETKKNLTRK, the pIC50 (HLA-A*11:01; [20]) was 4.85 and the pIC50 (HLA-A*03:01 [1]) was 4.30.
In the case of FYMASTWGA, the pKd (HLA-A*68:02 [2]; source organism: Entamoeba dispar SAW760) was 7.08.
GASTSQETW showed a pKd (HLA-B*53:01; [24]) of 6.21, a pKd (HLA-B*58:01; [24]) of 8.53 and a pKd (HLA-B*57:01 [7]; [24]) of 7.99.
With GGRAHRMAL the pKd (HLA-B*51:01 [4]; [25]) was ≤ 4.70 and the pKd (HLA-C*15:02) was ≤ 4.70.
GTTEVNGLY was tested, and the pKd (HLA-A*01:01; [26]) was 7.82 and the pKd (HLA-A*03:01 [8]; [26]) was 5.67.
Sequence HTWTEQYKF has a pKd (HLA-A*32:01; [23]) of 6.82 and a pKd (HLA-B*57:01 [7]; [23]) of 8.63.
With ISRNTVKRY the pKd (HLA-A*01:01; [27]) was ≤ 4.70 and the pKd (HLA-B*15:01 [3]; [27]) was 6.55.
With KTSIGLLCVM the pKd (HLA-B*57:01 [7]; [28]) was 7.94.
KTWGKAKIF was tested, and the pKd (HLA-A*32:01; [22]) was 7.22 and the pKd (HLA-B*57:01 [7]; [22]) was 7.44.
LNTIQFMHE was tested, and the pIC50 (HLA-A*11:01; source organism: Vaccinia virus WR) was ≤ 3.83.
In the case of MAMTTVLSI, the pKd (HLA-B*53:01; [22]) was 8.63, the pKd (HLA-B*08:01) was 7.79 and the pKd (HLA-B*58:01; [22]) was 7.72. The pKd (HLA-B*51:01 [9]) was 7.44.
MIAGVLFTF showed a pKd (HLA-A*32:01; [29]) of 8.73, a pKd (HLA-A*26:01 [10]) of 5.91 and a pKd (HLA-B*58:01; [29]) of 7.69. For the same sequence, the pKd (HLA-A*02:06) was 7.65, the pKd (HLA-A*23:01) was 7.59 and the pKd (HLA-B*35:01) was 8.33. The pKd (HLA-A*24:02) was 7.30.
PVYRDHSEK showed a pIC50 (HLA-A*11:01; [20]) of 5.15 and a pIC50 (HLA-A*03:01 [1]) of 5.12.
RAKGSRAIW gave a pKd (HLA-B*58:01; [22]) of 7.57 and a pKd (HLA-B*57:01 [7]; [22]) of 6.76.
In the case of RPAADGKTV, the pKd (HLA-B*51:01 [4]; [25]) was ≤ 4.70.
With SAIVLEFFMM the pKd (HLA-B*58:01; source organism: Dengue virus 3 Martinique/1243/1999) was 6.70.
With SATRLENIMW the pKd (HLA-B*58:01; [24]) was 7.16 and the pKd (HLA-B*57:01 [7]; [24]) was 7.93.
For SWHHTSDDF, the pKd (HLA-A*02:12 [11]) was ≤ 4.70, the pKd (HLA-A*02:19) was ≤ 4.70 and the pKd (HLA-A*24:03) was 7.73. The pKd (HLA-A*02:11 [12]) was ≤ 4.70, the pKd (HLA-A*68:02 [13]) was ≤ 4.70 and the pKd (HLA-A*02:16) was ≤ 4.70. For the same sequence, the pKd (HLA-A*03:01 [14]) was ≤ 4.70, the pKd (HLA-A*02:03) was ≤ 4.70 and the pKd (HLA-A*29:02) was ≤ 4.70. For the same sequence, the pKd (HLA-B*46:01; [20]) was ≤ 4.70, the pKd (HLA-A*69:01) was ≤ 4.70 and the pKd (HLA-B*39:01; [20]) was ≤ 4.70. The pKd (HLA-B*27:03; [20]) was ≤ 4.70, the pKd (HLA-A*26:01 [15]; [20]) was ≤ 4.70 and the pKd (HLA-A*02:01) was ≤ 4.70. For the same sequence, the pKd (HLA-B*51:01 [16]; [20]) was ≤ 4.70, the pKd (HLA-B*18:01; [20]) was ≤ 4.70 and the pKd (HLA-B*57:01 [17]; [20]) was ≤ 4.70. The pKd (HLA-B*15:01 [3]; [20]) was ≤ 4.70 and the pKd (HLA-B*15:17) was ≤ 4.70.
Sequence TTFSLHYAW has a pKd (HLA-A*32:01; [28]) of 8.88, a pKd (HLA-B*58:01; [28]) of 8.80 and a pKd (HLA-B*57:01 [7]; [28]) of 8.85.
For WMADVPLQW, the pKd (HLA-B*58:01; [29]) was 9.28.
WMSNGTWNY was tested, and the pKd (HLA-A*01:01; source organism: Human immunodeficiency virus 1) was 8.05.
YYLIKYLHV was tested, and the pKd (HLA-B*46:01; [30]) was ≤ 4.70, the pKd (HLA-A*02:12 [18]) was 5.93 and the pKd (HLA-B*39:01; [30]) was ≤ 4.70. The pKd (HLA-B*27:03; [30]) was ≤ 4.70, the pKd (HLA-A*26:01 [15]; [30]) was ≤ 4.70 and the pKd (HLA-A*02:11 [19]) was 7.15. For the same sequence, the pKd (HLA-B*51:01 [16]; [30]) was ≤ 4.70, the pKd (HLA-B*18:01; [30]) was ≤ 4.70 and the pKd (HLA-B*57:01 [17]; [30]) was ≤ 4.70. The pKd (HLA-B*15:01 [3]; [30]) was ≤ 4.70 and the pKd (HLA-A*03:01 [8]; [30]) was ≤ 4.70.
